{"source": "patent US11932673B2", "about": "“Sodium channel inhibitors” (priority 2017, dated 2024)", "molecules": {"B1": {"name": "KB_A12: EETI-II VL CDR2 KnotBody, D1A12 VH, VL SEQ ID NO: 105/373; parental/isotype control (antibody, V domains shown)", "VH": "EVQLVESGGGLVRPGGSLRLSCAASGFTFSSYAMSWVRQAPGKGLEWVSAISGSGGSTYYADSVKGRFTISRDNTKNSLYLQMTSLRADDTAFYYCVKDFGPGYGTGWFDYWGPGTLVTVSS", "VL": "QSVLTQPPSVSEAPRQRVTITCSGSSSNIGNNAVNWYQQLPGKAPKLLIYAAGRCPRILMRCKQDSDCLAGCVCGPNGFCGANSGVSDRFSAAKSGTSASLAINGLRSEDEADYYCAAWDDSLNGYVFGTGTKLTVLG"}}, "key": {"trypsin": {"system": "trypsin", "experiment": "TRF binding assay of purified KnotBody Fabs on biotinylated trypsin"}, "huASIC1a": {"target": "T1, huASIC1a (Homo sapiens, UniProt P78348)", "T1 sequence (P78348 whole entry, looked up)": "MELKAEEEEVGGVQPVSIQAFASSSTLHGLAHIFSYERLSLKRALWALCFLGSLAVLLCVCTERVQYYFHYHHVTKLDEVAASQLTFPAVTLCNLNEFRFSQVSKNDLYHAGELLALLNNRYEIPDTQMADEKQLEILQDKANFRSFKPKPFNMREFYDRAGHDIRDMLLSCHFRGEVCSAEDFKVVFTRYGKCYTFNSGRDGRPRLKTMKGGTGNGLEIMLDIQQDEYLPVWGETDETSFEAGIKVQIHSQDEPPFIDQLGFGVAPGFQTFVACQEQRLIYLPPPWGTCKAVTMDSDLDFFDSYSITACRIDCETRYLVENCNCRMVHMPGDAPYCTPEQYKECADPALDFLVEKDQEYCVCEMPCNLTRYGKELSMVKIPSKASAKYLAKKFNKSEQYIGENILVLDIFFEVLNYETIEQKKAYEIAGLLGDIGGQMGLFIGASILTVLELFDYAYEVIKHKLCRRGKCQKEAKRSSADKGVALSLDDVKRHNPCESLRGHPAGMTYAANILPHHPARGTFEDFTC", "experiment": "QPatch automated whole-cell patch-clamp on HEK293 cells stably expressing huASIC1a", "format": "cell-based", "conditions": "pH 6.0 activation after 15-20 min pre-incubation; concentration μM: KB_A07_PcTx1 6.6, KB_A12_PcTx1 5, KB_A12_Mba-1 3, KB_A12_Mba-2 2.3, KB_A07 6, KB_A12 3.3", "experimental": "Knottin Kv 1.3 and ASIC1a blockers expressed in the KnotBody format (see examples 6 and 7) were tested for their ability to inhibit the function of the ion channel targets. The effect of these KnotBodies on cells expressing the human Kv 1.3 (huKv1.3) or human ASIC1a channels was assessed using QPatch automated whole-cell patch-clamp electrophysiology (Sophion).\nTo functionally assess the ASIC1a KnotBodies, HEK293 cells stably expressing huASIC1a (Sophion) were analysed using a QPatch electrophysiology assay in the presence or absence of the KnotBody fusions (using KB_A12 as a recipient and replacing the original EETI-II donor as shown in Table 8). The “parental” KB_A12 with the EETI-II donor was used as a negative control. Internal and external physiological solutions were freshly prepared prior to the assay. […]\nAt the end of each KnotBody incubation and subsequent ASIC1a current activation, a full blocking concentration (300 nM) of the ASIC1a knottin inhibitor PcTx1 (positive control) was perfused onto the cell recording and a final activating pH 6.0 external solution was applied. The percentage remaining signal between activating pH 6.0 baseline (i.e. pre-KnotBody) and post-KnotBody incubation was determined."}, "human Nav1.7": {"target": "human Nav1.7 (Homo sapiens, UniProt Q15858)", "sequence (Q15858 other isoform, or with tags, fused parts or gaps)": "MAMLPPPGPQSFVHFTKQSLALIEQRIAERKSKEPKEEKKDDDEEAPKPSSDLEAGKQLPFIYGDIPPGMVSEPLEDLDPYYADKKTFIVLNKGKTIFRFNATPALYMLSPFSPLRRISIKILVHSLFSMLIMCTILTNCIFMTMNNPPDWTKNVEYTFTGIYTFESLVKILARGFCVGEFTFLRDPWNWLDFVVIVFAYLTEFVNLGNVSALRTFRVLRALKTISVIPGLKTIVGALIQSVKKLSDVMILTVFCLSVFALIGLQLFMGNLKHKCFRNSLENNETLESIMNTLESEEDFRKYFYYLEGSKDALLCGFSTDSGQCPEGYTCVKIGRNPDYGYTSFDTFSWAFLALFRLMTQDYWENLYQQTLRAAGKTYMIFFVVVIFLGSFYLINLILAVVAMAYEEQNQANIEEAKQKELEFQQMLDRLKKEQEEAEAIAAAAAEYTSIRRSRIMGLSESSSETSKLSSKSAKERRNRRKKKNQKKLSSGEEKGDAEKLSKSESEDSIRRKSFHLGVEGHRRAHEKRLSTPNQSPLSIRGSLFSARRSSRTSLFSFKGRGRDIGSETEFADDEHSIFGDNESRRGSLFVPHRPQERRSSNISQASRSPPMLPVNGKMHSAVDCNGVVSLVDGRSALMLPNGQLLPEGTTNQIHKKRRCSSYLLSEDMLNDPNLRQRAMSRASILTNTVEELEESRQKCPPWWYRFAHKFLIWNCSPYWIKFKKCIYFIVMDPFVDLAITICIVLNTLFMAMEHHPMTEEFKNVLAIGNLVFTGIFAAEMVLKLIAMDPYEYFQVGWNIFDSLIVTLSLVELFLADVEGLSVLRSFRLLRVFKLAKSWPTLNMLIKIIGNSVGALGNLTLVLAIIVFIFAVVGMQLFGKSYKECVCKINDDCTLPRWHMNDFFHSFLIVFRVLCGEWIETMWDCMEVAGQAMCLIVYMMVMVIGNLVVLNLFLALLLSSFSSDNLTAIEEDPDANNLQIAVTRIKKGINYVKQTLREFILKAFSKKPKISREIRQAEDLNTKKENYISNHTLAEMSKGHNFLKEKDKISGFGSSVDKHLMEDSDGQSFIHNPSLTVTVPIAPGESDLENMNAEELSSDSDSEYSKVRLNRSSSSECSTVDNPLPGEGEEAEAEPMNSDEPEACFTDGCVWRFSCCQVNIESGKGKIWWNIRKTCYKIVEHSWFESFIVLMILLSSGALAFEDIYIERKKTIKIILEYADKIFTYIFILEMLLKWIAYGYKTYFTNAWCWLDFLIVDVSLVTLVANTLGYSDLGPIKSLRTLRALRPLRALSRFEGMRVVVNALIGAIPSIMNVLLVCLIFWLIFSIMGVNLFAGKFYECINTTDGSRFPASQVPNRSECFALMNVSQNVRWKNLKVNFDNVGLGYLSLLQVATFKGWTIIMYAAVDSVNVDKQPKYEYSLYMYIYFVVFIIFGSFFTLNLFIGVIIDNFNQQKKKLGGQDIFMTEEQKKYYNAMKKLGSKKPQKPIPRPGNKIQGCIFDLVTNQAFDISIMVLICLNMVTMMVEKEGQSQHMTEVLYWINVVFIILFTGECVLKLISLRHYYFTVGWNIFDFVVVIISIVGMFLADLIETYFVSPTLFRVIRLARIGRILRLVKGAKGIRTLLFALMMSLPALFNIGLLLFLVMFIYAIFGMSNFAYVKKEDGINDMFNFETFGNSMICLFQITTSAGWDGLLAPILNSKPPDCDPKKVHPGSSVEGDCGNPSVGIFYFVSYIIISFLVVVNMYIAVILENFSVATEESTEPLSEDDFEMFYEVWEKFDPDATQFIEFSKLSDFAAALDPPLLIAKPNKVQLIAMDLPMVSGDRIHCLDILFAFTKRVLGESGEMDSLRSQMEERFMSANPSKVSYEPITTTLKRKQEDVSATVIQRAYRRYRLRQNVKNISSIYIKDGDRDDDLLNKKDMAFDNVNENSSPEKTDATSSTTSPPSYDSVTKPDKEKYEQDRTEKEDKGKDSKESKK", "experiment": "QPatch patch-clamp on CHO cells stably expressing human Nav1.7, single application (Example 19)", "format": "cell-based", "conditions": "20 minutes application; run-down of external solution control subtracted", "experimental": "The effect of these KnotBodies on cells expressing human Nav1.7 (huNav1.7) channel was assessed using QPatch automated patch-clamp platform (Sophion). For the testing of Nav1.7 ion channel currents, CHO cells stably expressing human Nav1.7 (GenBank accession number NM 002977; cell line catalogue number CT6003, Charles River Discovery, Cleveland, USA) were subjected to the QPatch electrophysiology assay in the presence or absence of the KnotBody fusions or the antibody isotypes (negative controls). Internal and external physiological solutions were freshly prepared prior to the assay. The extracellular solution contained 145 mM NaCl, 4 mM KCl, 2 mM CaCl2, 1 mM MgCl2, 10 mM HEPES and 10 mM glucose; the pH was adjusted to 7.4 with NaOH; the osmolarity was ˜305 mOsm/L. The intracellular solution contained: KF (120 mM), KCl (20 mM), HEPES (10 mM) EGTA (10 mM); the pH was adjusted to 7.2 with KOH; osmolarity was ˜300 mOsm/L.\nA series of depolarising voltage (channel activating) pulses were used to monitor the channel currents upon adding control (extracellular solution) to define a control baseline of current activity. To these measured control channel currents KnotBody or parental antibody isotypes (control molecules) were applied to the external bathing solution. The parental KnotBody KB_A12 (with trypsin inhibitor knottin EETI-II at CDR2) were used as test molecule isotype controls for the testing. […] The elicited, maximum outward current values measured during the −10 mV activating step for each solution period (a control, baseline level of current was determined at 10 minutes after application of the control external recording solution and a test level of current was determined after 20 minutes of application of KnotBody or its isotype) and average inhibition was determined between the current from the 10 minute baseline control current and the subsequent 20 minute KnotBody application. […] The average inhibition values (with external control reduction subtracted) for KnotBodies and isotypes was calculated."}}}
{"molecule": "B1", "values": [{"measurement": "TRF signal for 0.6 ug/mL Fab", "setting": "trypsin; KnotBody Fab 0.6 ug/mL, background (no Fab) 431", "result": 102132}, {"measurement": "TRF signal for 2.4 ug/mL Fab", "setting": "trypsin; KnotBody Fab 2.4 ug/mL, background (no Fab) 406", "result": 221989}, {"measurement": "TRF signal for 10 ug/mL Fab", "setting": "trypsin; KnotBody Fab 10 ug/mL, background (no Fab) 420", "result": 252832}, {"measurement": "% current remaining", "setting": "huASIC1a", "result": 67.4, "unit": "%"}, {"measurement": "inhibition in measured Nav1.7 current", "setting": "human Nav1.7", "result": "small inhibition in measured current, which was not statistically significant"}]}
